Results on 1 molecule are retold here after patent publication US20250092127A1 (Regeneron, published 2025).

In the assay the target is T1, mouse IL-4R (mouse, UniProt P16382 26-233, limits assumed).
T1 sequence (looked up): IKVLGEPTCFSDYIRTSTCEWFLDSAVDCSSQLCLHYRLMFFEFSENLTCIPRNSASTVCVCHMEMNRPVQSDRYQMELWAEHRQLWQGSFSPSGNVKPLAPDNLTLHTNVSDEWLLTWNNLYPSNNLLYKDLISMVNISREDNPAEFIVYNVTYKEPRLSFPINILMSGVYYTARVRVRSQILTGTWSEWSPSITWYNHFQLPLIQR
Nature of the assay: cell-based or functional assay.

B1: REGN1103 (antibody, V domains shown)
VH: EVQLQQSGPELVKPGASVRMSCKASGYTFTDYNIHWVKQSHGKSLEWIGYIYPNNGDNGYNQKFRGKATLTVDKSSSTAYMELRSLTSDDSAVYYCARGRLRYFDVWGTGTTVTVSS
VL: NIVLTQSPASLAVSLGQRATISCRASESVDNYGHSFMHWYQQKPGQPPKLLIYLASNLESGVPARFSGSGSRTDFTLTLDPVEADDAATYYCQQYNEDPPTFGSGTKLEIK
In the case of B1, the “IC50 of inhibition of IL-4-dependent proliferation of cell lines” value worked out at 1.9 nM and the “IC50 of inhibition of IL-13-dependent proliferation of cell lines” value stood at 0.011 nM.
